We go through three molecules from patent US20170283457A1 (YEDA RESEARCH AND DEVELOPMENT, published 2017).

B1: Importin7 (receptor, UniProt O95373 1-1038, looked up)
chain: MDPNTIIEALRGTMDPALREAAERQLNEAHKSLNFVSTLLQITMSEQLDLPVRQAGVIYLKNMITQYWPDRETAPGDISPYTIPEEDRHCIRENIVEAIIHSPELIRVQLTTCIHHIIKHDYPSRWTAIVDKIGFYLQSDNSACWLGILLCLYQLVKNYEYKKPEERSPLVAAMQHFLPVLKDRFIQLLSDQSDQSVLIQKQIFKIFYALVQYTLPLELINQQNLTEWIEILKTVVNRDVPNETLQVEEDDRPELPWWKCKKWALHILARLFERYGSPGNVSKEYNEFAEVFLKAFAVGVQQVLLKVLYQYKEKQYMAPRVLQQTLNYINQGVSHALTWKNLKPHIQGIIQDVIFPLMCYTDADEELWQEDPYEYIRMKFDVFEDFISPTTAAQTLLFTACSKRKEVLQKTMGFCYQILTEPNADPRKKDGALHMIGSLAEILLKKKIYKDQMEYMLQNHVFPLFSSELGYMRARACWVLHYFCEVKFKSDQNLQTALELTRRCLIDDREMPVKVEAAIALQVLISNQEKAKEYITPFIRPVMQALLHIIRETENDDLTNVIQKMICEYSEEVTPIAVEMTQHLAMTFNQVIQTGPDEEGSDDKAVTAMGILNTIDTLLSVVEDHKEITQQLEGICLQVIGTVLQQHVLEFYEEIFSLAHSLTCQQVSPQMWQLLPLVFEVFQQDGFDYFTDMMPLLHNYVTVDTDTLLSDTKYLEMIYSMCKKVLTGVAGEDAECHAAKLLEVIILQCKGRGIDQCIPLFVEAALERLTREVKTSELRTMCLQVAIAALYYNPHLLLNTLENLRFPNNVEPVTNHFITQWLNDVDCFLGLHDRKMCVLGLCALIDMEQIPQVLNQVSGQILPAFILLFNGLKRAYACHAEHENDSDDDDEAEDDDETEELGSDEDDIDEDGQEYLEILAKQAGEDGDDEDWEEDDAEETALEGYSTIIDDEDNPVDEYQIFKAIFQTIQNRNPVWYQALTHGLNEEQRKQLQDIATLADQRRAAHESKMIEKHGGYKFSAPVVPSSFNFGGPAPGMN
notes: Endogenous protein; also called Imp7; RANBP7

Experiment [1] addresses T1, Importin9 (UniProt Q96P70 2-1041).
T1 construct: Endogenous protein; also called Imp9; IMB5
The experiment can be described thus: PLA, resting HeLa cells. As for the experimental part: FIGS. 5A-5D illustrate that Imp3 interacts with Imp7/9-MAPK dimer in a phospho-dependent manner (A) Detecting heterodimerization of Imp3/7/9 using PLA. HeLa cells were grown on slides to 70% confluence, serum starved, and stimulated with Anisomycin (Anis, 0.5 μg/ml 15 min). Thereafter, the cells were fixed and subjected to a PLA, using the Abs indicated on top. The nuclei were detected using DAPI, and slides were visualized using a fluorescent microscope. (B) Quantification of the intensity of the signal was performed using ImageJ analysis tool. Data shown represents mean±S.E. The significance of stimulated vs NT was p<0.0005. (C) Detecting Imp3/7/9 interaction by CoIP. Serum-starved HeLa cells (0.1% FBS, 16 hrs) were treated with Anisomycin (Anis 0.5 μg/ml) or TPA (250 nM) for 15 min. Cell extracts were then subjected to a Co-IP with the Abs indicated on right. […] The beads were then washed with a washing buffer containing 150 mM NaCl, and interacting Imps were detected using Western blot analysis with the indicated Abs.
In order to examine this hypothesis, and establish a complex formation between endogenous Imp3/7/9, the present inventors monitored these possible interactions by PLA. No interaction between any of the examined Importins was detected in resting HeLa cells (FIGS. 5A, 5B). […]

Experiment [2] addresses B1. The experiment can be described thus: in vitro interaction: GST-MAPK with Imp IPed from stimulated HeLa cells, Western blot. As for the experimental part: (§1) FIGS. 3A-3B illustrate that JNK1/2 and p38α/β directly interact with either Imp7 or Imp9 but not with Imp3. (A) In vitro interaction of JNK1/2 and p38α/β with Imp3/7/9. Purified Imp3/7/9 were prepared by IP as follows: HeLa cells were grown to 70% confluence, serum starved, and then were either stimulated with Anisomycin (Anis 0.5 μg/ml, 15 min), TPA (250 nM, 15 min) or left untreated (NT). Imp3/7/9 were then IPed from the cell's extracts and extensively washed, twice with RIPA buffer and once with 0.5M LiCl. The indicated GST-MAPKs were prepared from bacteria as described under Materials and methods. To examine association, 500 ng of each GST-MAPK were incubated with 20 μl of the indicated IPed Imps in PBS (2 hrs, 4° C., with rotation). The beads were then washed with washing buffer containing 150 mM NaCl, and interacting MAPKs were detected using Western blot analysis with the indicated Abs. (B) Imp3 is not required for Imp7/9 interactions with JNK1/2 and p38α/β. HeLa cells were treated with Si RNAs of Imp3 according to the manufacturer instructions. […] Cell extracts were then subjected to Co-IP with anti Imp7 or Imp9, the interacting MAPKs were detected by Western blot with the indicated Abs. Amount of IPed Imps was detected by the indicated Abs.

The target in experiment [3] is T1, Importin9. Described as above. How it is done:
as §1

Experiment [4] concerns the target B1. Nature of the experiment: Co-IP with anti GFP Abs, transfected HeLa cells. As for the experimental part: (§2) FIGS. 10A-10B illustrate that endogenous and overexpressed JNK1/2 and p38α/β CoIP with Imp3, 7 and 9. (A) A Co-IP screen to detect the importins interacting with JNK1/2 and p38α/β in MCF7 cells. MCF7 cells were grown on slides to 70% confluence, serums starved and then were either stimulated with Anisomycin (Anis 0.5 μg/ml, 15 min), TPA (250 nM, 15 min) or left untreated (NT). Cells extracts were then subjected to Co-IP with anti JNK1, JNK2, p38α, or p38β, and rabbit IgG as a negative control (Control). The interacting Imps or the IPed MAPKs were detected by Western blot with the indicated Imps or MAPK Abs. (B) Interaction of overexpressed MAPKs in HeLa cells. HeLa cells were transfected with either JNK2-GFP (wt-JNK2), p38ββ-GFP (wt-p38β) or GFP alone. Cells were serum starved, and then treated with Anisomycin (Anis 0.5 μg/ml, 15 min), TPA (250 nM, 15 min). Cells extracts were then subjected to a CoIP with anti GFP Abs. The interacting Imps and the loading extracts were detected using Western blot analysis with the indicated (left) Abs. The blots were developed with either NBT/BCIP or ECL. Arrows indicate interacting Imps.

The target of experiment [5] is T1, Importin9. The experiment can be described thus: Co-IP with anti GFP Abs, transfected HeLa cells. As for the experimental part: as §2

T1 sequence (Q96P70 2-1041 limits assumed): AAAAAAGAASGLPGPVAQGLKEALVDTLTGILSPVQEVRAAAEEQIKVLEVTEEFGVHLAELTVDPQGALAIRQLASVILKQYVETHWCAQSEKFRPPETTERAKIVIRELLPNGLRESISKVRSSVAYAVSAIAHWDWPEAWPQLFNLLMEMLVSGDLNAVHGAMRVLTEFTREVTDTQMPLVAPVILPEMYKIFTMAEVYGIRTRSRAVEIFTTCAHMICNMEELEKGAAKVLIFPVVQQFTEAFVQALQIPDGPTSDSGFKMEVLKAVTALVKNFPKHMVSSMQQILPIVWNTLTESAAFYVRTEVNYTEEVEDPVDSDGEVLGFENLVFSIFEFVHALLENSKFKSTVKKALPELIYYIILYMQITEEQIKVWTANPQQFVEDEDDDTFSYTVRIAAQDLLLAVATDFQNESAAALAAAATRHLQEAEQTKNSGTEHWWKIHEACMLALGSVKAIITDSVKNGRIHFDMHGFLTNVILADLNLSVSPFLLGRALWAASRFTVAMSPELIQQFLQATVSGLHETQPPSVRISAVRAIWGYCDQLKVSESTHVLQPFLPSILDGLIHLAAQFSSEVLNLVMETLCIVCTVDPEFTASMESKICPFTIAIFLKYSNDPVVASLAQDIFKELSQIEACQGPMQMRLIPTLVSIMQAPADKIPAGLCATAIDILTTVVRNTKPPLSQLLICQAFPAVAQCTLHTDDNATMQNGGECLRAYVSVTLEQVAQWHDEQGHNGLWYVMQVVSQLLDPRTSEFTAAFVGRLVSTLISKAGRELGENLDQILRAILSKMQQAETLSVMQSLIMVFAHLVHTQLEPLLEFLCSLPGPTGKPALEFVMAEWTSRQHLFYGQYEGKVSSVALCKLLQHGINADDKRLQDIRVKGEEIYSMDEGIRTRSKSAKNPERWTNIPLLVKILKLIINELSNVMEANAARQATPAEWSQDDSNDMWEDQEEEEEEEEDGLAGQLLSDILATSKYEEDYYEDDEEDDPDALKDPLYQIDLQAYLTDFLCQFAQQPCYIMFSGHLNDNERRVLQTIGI

On to B1, for which, in experiment [1], the binding result is “no binding”.

B2: GST-p38β (enzyme, UniProt Q15759 1-364, looked up)
chain: MSGPRAGFYRQELNKTVWEVPQRLQGLRPVGSGAYGSVCSAYDARLRQKVAVKKLSRPFQSLIHARRTYRELRLLKHLKHENVIGLLDVFTPATSIEDFSEVYLVTTLMGADLNNIVKCQALSDEHVQFLVYQLLRGLKYIHSAGIIHRDLKPSNVAVNEDCELRILDFGLARQADEEMTGYVATRWYRAPEIMLNWMHYNQTVDIWSVGCIMAELLQGKALFPGSDYIDQLKRIMEVVGTPSPEVLAKISSEHARTYIQSLPPMPQKDLSSIFRGANPLAIDLLGRMLVLDSDQRVSAAEALAHAYFSQYHDPEDEPEAEPYDESVEAKERTLEEWKELTYQEVLSFKPPEPPKPPGSLEIEQ
notes: Made in bacteria; also called GST-p38α/β; GST-MAPK; not shown: glutathione S-transferase tag of the pGEX-2T vector (GE healthcare)
For the molecule B2, the binding result in experiment [2] and in experiment [3] was “binds” throughout.

B3: p38β-GFP (enzyme, UniProt Q15759 1-364, looked up)
chain: MSGPRAGFYRQELNKTVWEVPQRLQGLRPVGSGAYGSVCSAYDARLRQKVAVKKLSRPFQSLIHARRTYRELRLLKHLKHENVIGLLDVFTPATSIEDFSEVYLVTTLMGADLNNIVKCQALSDEHVQFLVYQLLRGLKYIHSAGIIHRDLKPSNVAVNEDCELRILDFGLARQADEEMTGYVATRWYRAPEIMLNWMHYNQTVDIWSVGCIMAELLQGKALFPGSDYIDQLKRIMEVVGTPSPEVLAKISSEHARTYIQSLPPMPQKDLSSIFRGANPLAIDLLGRMLVLDSDQRVSAAEALAHAYFSQYHDPEDEPEAEPYDESVEAKERTLEEWKELTYQEVLSFKPPEPPKPPGSLEIEQ
notes: Overexpressed in HeLa cells; also called wt-p38β; GFP-p38β; not shown: GFP of the pEGFP-C1 vector (Clontech)
Consider B3, for which the binding result in experiment [4] and in experiment [5] was “binds” throughout.
